In the domain aggregation screens of Martell et al. (2025):

Assay: soluble fraction after stress (log2 fold change); higher = more stays soluble; pooled small domains, quantitative proteomics
Conditions: stress: 75 degC
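Note: 20 min heating vs room temperature control held 20 min.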

| Sequence | soluble fraction (log2) |
| --- | --- |
| HMSYTAYLSQELGDMSREIQSELLKKGYNGSSSFTIVRTYMGSSVKFSVYNANNGELITSKTINM | -2.9 |
| HMSYTDIILKMSNVNFLTKVNFTNSEKNKNIKNGNFLIKKGKNRITAAFDYKDNELVISKSNLRNTFL | -1.18 |
| HMTAEVIYVDVGGEVNQPSVVELTDGSRVTDAIAAAGGLTEKADLTDINRAAFVSDGEKIFIPSQEE | 0.4 |
| HMTAFAGLTPRERDLLELIAQGRDNAQIAATLGVSDKTVRNHITHIFAKLEVETRAQAIVLARNAGFGRA | -1.12 |
| HMTAGYFTRGSHQDEVLRIQGTPSGVNKYSDHEVWNYGLSSVDISLRDRRVTEWNNISGNLKV | -0.149 |
| HMTAKRELILRVFMDSNGKLLSIDDVFMEMRKKRSHRTSKMTVKRAIDLLVDLGLLKEVLFDDDNIKYEYV | -1.26 |
| HMTALISGNKAMQMLELSRHSFEKIVKDGLLSIVHEGDKKYYEIGEVEAFMGSDTYKELVNGV | 0.449 |
| HMTALSIGTVVRFTGDRHYISSTGDTGYPASPGLAKITSINPGSKHPYHLIHIDNTSNVYGWVNKQDIIT | -1.17 |
| HMTAQLSITLNGETRRAAAGSIADLVRSLELDPAKVAVERNGLIVPRSTLAEVALGDGDVLEIVHFV | -1 |
| HMTASTLSYSKFNEQVVQNQVRKVTFQGEQVKGELISGQTFTTTVPANDTTLWPMLKAHNVDTAVTAA | 0.186 |
| HMTASVTDAMFELIDELPKLGKTSFRQLTADLVDRLQVVVTFLAVLELYKQGHVELDQSERFGDITVVWTG | 0.208 |
| HMTATIEEVNELTQSARVNINVPYAAKDEAKAYGAKWDDVERTWYTTGENYAQNKDFFDGFNPTAS | 0.583 |
| HMTATWLTYYRIKAGLTQKRLAELAGLNIRQVQKIENGETLAGNTTAKNLLALADALGIDPHKL | -2.15 |
| HMTAYENSIPLNWVIQKGDAKGLPLSANTARLLIDIVGIDLMDLDHELEKISLYLSGESITEEMIKEHIRG | -0.709 |
| HMTDAELDLLTPREQEVLQLIARGYLYKEIARRLGISVKTVEAHASSVLRKLQLSTRHELSHWAAQRH | -0.0813 |
| HMTDAYEVLDLNREASDEEIKKRYRELIREHHPDTLIAKGVPQEFVDLANDKMAAINAAYDRIEKDRGL | 0.56 |
| HMTDEEKENLREKMLEAGFPLLKQYGMTHTSVAKITQAAGIAVGTFYSFWKNKEAYMADLIGYHRR | -1.27 |
| HMTDITSAITRLNKYNKSGTPLTIDSVTPEALQTLQAKVSSAFEIGAVNQQTYDDVTKDIATLQQYLSSA | 0.378 |
| HMTDIVPNLIGKSLKDAIQSVEKSNLKAIFDGHGIVVSQQPRPGSPIPARKIMKVTLSPDYR | -0.13 |
| HMTDKLEEEAKKKAMEDALADEMNISKTIVHDGIRELARIGFLDVISRKGIYVADYTFTGNLETLLAVIRY | -0.848 |
| HMTDLDDFAARLKTLTDGRASTPRLRDGVMMLSLDVGGLGPDQRDGLIAAIREGGLTVPGVSDVRIVMT | -0.125 |
| HMTDLEDDEKKVYRLIVESGEGIDFDTLSERSGFSATELPSILLFLMMKEMIDELPGKIYRYSE | -0.0725 |
| HMTDMYLTYQELRHLGVSQNLISMWKSRKSIDFHMLGGTLYVRYMSIPEQTRSKLALQNVERVYNSRE | -2.6 |
| HMTDRINIGDVVTIISKDREDSQIVYMRYHKGKLSILGELILNKTKNDTVDFKGRTYDIATIEKS | -2.22 |
| HMTDVHFIDVPVSEGHPWIGLTVKDLNLPPGTLLVFLNHPGEKSTVPNGDTVLREGDVLVLGATAYAG | -0.384 |
| HMTDYKTNLQEFLQQDGEVEIEYKLLAEVGPSHARQFEVDVMMGDRVLGSGVGRNKKAAEQAAAKVALSKL | -0.0613 |

| Sequence | soluble fraction (log2) |
| --- | --- |
| HMTDYVPTIGTKISKDFGSKGYFEGEVVSGPHNVTVEGDNMVVWKVQYEDGDREEMTASEIAHWKA | -0.104 |
| HMTEAIDVPNLVGQNYSDVKSNSSYKFNWDIINVYDSGKPEGEIIKQEPEAGSKKVKENAVITLTVN | 0.538 |
| HMTEDNDLETIAYDILKERNLNNININVKNGVLNIYGKTETLKEKREIEKILSSLNVSKINNLIKI | 0.258 |
| HMTEDQDWAIFKQKLKAQTEIDLDLYKEPQMKHRIKNLIQNAGFDSYVQYFDYVYLNQDRLAAFLENLTV | -0.535 |
| HMTEEELLERLDAVITEYKGKPGALIPVLQLAQGIFGYLPEVALKHIARQLDKPYSEVAGVVSFYSFFTT | 0.291 |
| HMTEFDVIMKSFGSEKIKVIKEVRAITGLGLAEAKALVEGVPAKIKEQVSKDDAEALKKQLEAVGAEVEL | -0.0848 |
| HMTEFWTGPITTVTKANFADWTLDTNQDRITANVWLTRADSKGLFNITPGKETAFDIVDYLSPLDTEWA | -0.209 |
| HMTEGDRLARRILRLVRNKPNGYPEVELMKATVLDWNHFQRSISSLEMAGILERRDPGDGTPPVWVEKR | -1.53 |
| HMTEKIEWYKEVLDLEPNSKIFFPLAKMLEKEGELEEARRVLAEGVSRHEEFLEARLFYISVLSRL | -0.301 |
| HMTENLELLATGSLWTEPDGSGKIISYLIPGLRVKKLETNGIFYKIQLQNGLIGWADQSLFTIAEPK | -1.62 |
| HMTENQKNIDLIKIVSLLVHAAKIDENYTNKEKELIINFINNFSKENKQNIKSSEILEEAEKYEK | 0.132 |
| HMTEPKRIVDHWQPSDDVYDILRMSHIDLDFARSLLPEFIVYWKDSSQTHTSWNSKFLQHAKYHWAKRHQL | -2.27 |
| HMTEPLTKREKEVLLLLPRGLTAKAMASELFLTEATIKSHLAAIFRKFKVVNRTQAIAIAVESKILT | -2.41 |
| HMTESLVITVDPALHGLRLDRGLADALPDRSRSEVQRWIKEGRVQLHGAPAKPSLKLAAGDIVTIALPEE | 0.442 |
| HMTESSTYFEKIGTEISQFKSIPKNIDVIIIEKLIYSGIIKKVDNEENSRVYYILTRKGRYFWKRYVLS | 0.16 |
| HMTETFVLNLRQPIAAAPVLPGYRVARTDEQTLEVEVSKDQNLNEIFTALSALGVEVLSMRNK | -0.0438 |
| HMTFAEADAQYEVIKQQYLAGALDEEQFDEQLHRLMVLDDGGLWWAKSRENGSWHYYDPDREDWIAATP | -0.394 |
| HMTFEAKKGYINADMSVNVRETASTSATVIITLNPNTEVKVVGEENDFYKIEYKEYKGYVAKRLISDSQVQ | -0.747 |
| HMTFPTEAKLTGDKVFVRSGPSTQSQRLTNLAINSVVTVLAREMGDMQYPWYKVRYSDGEGWVYGQYVEAI | -1.08 |
| HMTFTQFAESHGVIIKSLKASDKIQRGPTVAHPKSDNGAWLWDGNRGGVMAWDGDGQWYWFK | -1.73 |
| HMTGEERRMNTADLYRRRGMELFKRKIYVDAIDSLKVSLEYEDNATTRYYLDLATKRYQDLKIS | -2.13 |
| HMTGETWAERSRALAAAGLIVMGQEAKNKIEDLPSLSPLIEAAAASETRLLTGQIIDELLAFV | -0.589 |
| HMTGIELLSHREHQVYDLLTQGRTVTEIGAQLNLAPNTVSTYRARILEKTGTKNDVELALYAQRH | -0.22 |
| HMTGKASEIAALLEQRIAAGDYPAGSKLPSERELAASFHVSRNTIRDAIALLAARKIVSTKWGAGTVVLG | -0.967 |
| HMTGLRETIPAALDGERLDRVVALLGDVSRSRASAALEAERVTLDGEVVTLRSHRVREGEELTVAGFE | 0.417 |
| HMTGLSAQILAKLRDNHGVLPVSDKSDPAVISNLFGVSKGNFKKAIGGLYKEGQIVIHADRIEL | -0.0972 |

| Sequence | soluble fraction (log2) |
| --- | --- |
| HMTGLSFEEKDLLGNALKLLDETERRIVILHATSGLKHREIAKQLDIPLPTVLSKYTRAIKKLKKHME | -1.14 |
| HMTGPSYTTRRVEAAETMMEFLRTFPQAAPFIGDLYVKAQDWPLGEEIGDRLKKMLPPQLQE | -0.698 |
| HMTGQVASMVERLAQRLKDQPQDAEGWAMLARSYSVLGRHPEALQAYEKALALRKDDANLLADYADSLA | -0.23 |
| HMTGRHEEAIQELKRTLELHPQKPKIFLLLGVSYLRLNNLKKAVEAFNTVLLLQPKNQKALTMLKEIKKR | -0.178 |
| HMTGSLLVEVQGRPDADRLLGQALVDAGLTARPAGGALIEVEVRDETTPDVVRDLTVDLGLGLVRMQERH | -0.548 |
| HMTGSLRIKHKTYYMLFSWKDESGQWRQKSESTGIPERGGKRKAQEMLNTRLEELQLQSTASL | -3.87 |
| HMTGSLRVTSSPSGAEIYVDEIYRGYTPLTIGSLSTGRHEVRLHLSGYQDYTRTVEIESGSQSSFSVTLT | -1.46 |
| HMTGSTSVAQVSTPSGSLNLRAYASTSARVLLQIPEYAFVTVYNRGATWSYVSYNGVSGYVMSVYLSFGG | -2.31 |
| HMTGTVKVNSLNVYKSASLDSEVKDTLVLNTKVTIAENGQVTDGIYVWGRLQSGEGYVQMNNLTL | -0.418 |
| HMTHRRLELTLDAIDERLDRALTAAVPELSRMQWQRLIREGLVTVDGERARPSYRIQGGETLVALVPEV | -0.448 |
| HMTIAEGLIFRFTEPFKPIDQYTYYIMGDNKVEQIPNFKTLEVMLAQRNQNYLSVRVIEKSQLDDILKEF | -4.16 |
| HMTIDETKKQQVKDGLKDIPGVTVEFVGDKAVLKGAVTDANRVKIMQIVMAAKVLSDASGLTSK | -0.422 |
| HMTIDTSNDLLNQITEATSKGPISILELKDQLNVNASDIEGELRTLIDQHLVFLKDGMLQVIPFD | 0.797 |
| HMTIEEMAIENINFSTQLLYKAMKYNGVNTVGDLLEKARSKKDLLTMAYIGNKEAEEIIEKLSELGITI | -1.63 |
| HMTIFGWQQDETGKWYRNADGTFYENGWKEIDGAQYYFDENGYVTTGWLELDGKDYYFDEEGKYDSTKVR | -0.445 |
| HMTIGPALAIGGNKVEMTQQGKIQVTNPQGKIKTLSQDEFKKQLVKNADKIEAGQDFEFKKD | 0.275 |
| HMTIKLFPNPSTDFIRVSELSAKENYKIYTILGSEIKRGSVSNNETIDIRNLNSGVYLLKFDNGTTKKIVK | -1 |
| HMTIKTAFPAEDLAKPDNFKSLLYYFGLLTIRGTKWGSTLLAIPNLTVREQLYSYLVEAYRSADL | 0.331 |
| HMTILKEGMSGPEVERLQDALKRHGFDPGRVDGQFGPGTEAAILAFQKSEGLRADGVAGPKTQQALGLE | 0.121 |
| HMTIRLKELRKQKGNTQAEVAKILGTNQSQYGKYENERTQLSLDNAKILSDYFGVSVPYLLGLDDNP | -0.361 |
| HMTISDTAYQAFLEQLGVGMVVEHKRFGEGVITGMPKGKIRITFEEGTKSFQARALAESGMLK | -0.875 |
| HMTISIAEQIFEQLEREILSGAYPRGELLTETKLSEKLGVSRTPIREALRRLDQEHIIKMTTKGAFVLGI | -2.4 |
| HMTITIGNSDGGYMKMGADGFEVRFSGSDGGNHYAKMYYNNDGWARLTLGSYGEEKARIDSDGMIQTR | 0.108 |
| HMTKEAIAQKLRIARQESGLTQKDVSAKIGRPQQTIASWEVGRSQPDADTLYSLLLLYKVSPNTFFEYD | -1.18 |
| HMTKEEIVVNWLPRYTKRNLEDFGEYILLTNFNKYVEIFAEKFNVPILGRDANMISASAEGITIIN | -0.409 |
